Results: PMC4207781

Target: Fc gamma receptor IIb (FcγRIIb) on GM-CSF macrophages (human (endogenous in monocyte-derived macrophages)) (UniProt P31994)
Sequence of UniProt P31994 (P31994 43-217): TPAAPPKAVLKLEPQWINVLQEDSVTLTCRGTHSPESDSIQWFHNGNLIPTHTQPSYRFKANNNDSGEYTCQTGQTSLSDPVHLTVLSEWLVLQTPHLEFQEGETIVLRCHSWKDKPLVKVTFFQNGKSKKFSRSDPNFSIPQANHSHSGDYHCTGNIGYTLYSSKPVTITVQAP

reduction of TNFα release by gmMφ co-cultured 1:5 with cytokine activated T cells (Tck) for 20 h, with ICs (50 µg/ml): 50%
Substance: heat-aggregated immune complexes (IC) of human IgG
